From PMC7293038

Experiments:
Assay in all cases: BLI; biotinylated Avi-tag-ZIgE-SpyCatcher loaded on streptavidin Octet tips (2.5 ug/ml, 60 s); IgE as analyte in PBST with 30 mg/ml skimmed milk; 300 s association, 400 s dissociation; 1:1 binding model assuming only partial dissociation; mean of three IgE concentrations
[1] = biological target: Avi-tag-ZIgE^consensus-SpyCatcher
[2] = biological target: Avi-tag-ZIgE^wild-type-SpyCatcher
[3] = biological target: Avi-tag-ZIgE^33-SpyCatcher
[4] = biological target: Avi-tag-ZIgE^44-SpyCatcher

Kd [1]: 0.61 µM
Kd [2]: 7.3 µM
Kd [3]: 2.1 µM
Kd [4]: 4.8 µM
Substance: IgE (native human monoclonal, Abcam ab65866) (antibody)
